Assay results from US5985630A, “Assay for detecting inhibitors of aminoacyl-tRNA synthetases” (Zeneca Limited, priority 1993, dated 1999).

Assays:
Assay type in all cases: biochemical, E. coli
[1] = tested on: T1, Nc1ncnc2c1ncn2[C@@H]1O[C@H](COP(=O)(O)OP(=O)(O)OP(=O)(O)O)[C@@H](O)[C@H]1O; assay: 3H-isoleucine-based radiolabelled (standard radiometric) assay; details: other: 3H-Ile assay; pH 7.4; 37.0 °C
T1 construct: endogenous in cells; enzyme partially purified in house
Method: (§1) 2. Measurement of ITRS Activity using a ^3 H-Isoleucine-Based Radiolabelled Assay
(§2) The activity of ITRS during fractionation was monitored using conditions based on the method described by Steinmetz and Weil (7), and as described below. Stock reagents used in the method are as follows:
(§3) Prepared as described above. The specific activity of the enzyme used in the present example was approximately 145 nM of product formed/minute/mg, and was about 5%-10% active. The enzyme was diluted as appropriate. It will be appreciated that the enzyme amounts in the assay can be adjusted according to the purity of the enzyme used.
(§4) The assay mixture for a final volume of 200 μl was composed of:
(§5) The standard assay (in 200 μl) was carried out in quadruplicate in Eppendorf microcentrifuge tubes. The ingredients were preincubated for 2-3 minutes at 37° C., and the reaction started by addition of approximately 20 μl of the appropriately diluted enzyme extract as described above.
(§6) The final reaction contained reagents in the following concentrations:
(§7) 0.1% bovine serum albumin […]
(§8) 200 μl of the reaction mixture was pipetted onto 1.5 cm^2 cellulose 3MM filters. […] The dried filters were placed in 20 ml scintillation vials and the radioactivity counted in 15 ml Optiphase.
(§9) The inhibition constants of two compounds were measured and the results compared with the values obtained using the standard ^3 H-isoleucine assay.

CC[C@H](C)[C@H](N)C(=O)O = tested on: T2, CC[C@H](C)[C@H](N)C(=O)O; assay: as above; details: other: 3H-Ile assay; pH 7.4; 37.0 °C
T2 construct: endogenous in cells; enzyme partially purified in house
Method: as §1, §2, §3, §4, §5, §6, §7, §8, §9

[2] = tested on: T1, Nc1ncnc2c1ncn2[C@@H]1O[C@H](COP(=O)(O)OP(=O)(O)OP(=O)(O)O)[C@@H](O)[C@H]1O; assay: Colorimetric assay based on valine as substrate (valine-based assay of the invention); details: other: colorimetric assay; pH 7.4; 37.0 °C
Method: (§10) 2. Measurement of ITRS activity using a Colorimetric Assay based on using Valine as Substrate
(§11) Incubations were set up in quadruplicate (as above) with a final volume of 200 μl as described below. Stock reagents used in the method were as follows:
as §3, §4
(§12) The standard assay (in 200 μl) was carried out in quadruplicate in Eppendorf microcentrifuge tubes. The ingredients were pre-incubated for 2-3 minutes at 37° C. and the reaction started by addition of 20 μl of appropriately diluted enzyme extract (as described above).
(§13) Thus the final reaction contained reagents in the following concentrations:
(§14) 0.12 mg of mixed tRNA species from E. coli (as described above) HPLC purified from […] available from by Sigma (UK) Ltd 1 unit/μl of inorganic pyrophosphatase and
(§15) an appropriate concentration of ITRS (for example […] of the enzyme as described above).
(§16) The samples were incubated at 37° C. for 20-60 minutes. […] The optical absorbance is then measured at a wavelength of 630 nm using a spectrophotometer.

CC(C)[C@H](N)C(=O)O = tested on: T3, CC(C)[C@H](N)C(=O)O; assay: as above; details: other: non-cognate amino acid substrate of ITRS; pH 7.4; 37.0 °C
T3 construct: endogenous in cells; enzyme partially purified in house
Method: as §10, §11, §3, §4, §12, §13, §14, §15, §16

E. coli ITRS (isoleucyl-tRNA synthetase) (Escherichia coli K-12)
Km [1]: 47 µM
Km (CC[C@H](C)[C@H](N)C(=O)O): 4.3 µM
Km [2]: 48 µM
Km (CC(C)[C@H](N)C(=O)O): 500 µM
